From paper PMC3058826

Molecular target: H3(1–15)K4 peptide (UniProt P68431)
Assay: ITC

Kd: 8.6 µM
Substance: TRIM24 PHD-Bromo (PHD-linker-Bromo segment, residues 824–1006), wild type (from UniProt O15164 824-1006) (domain or fragment)
